Molecular target: F-actin (polymerised from Ca2+-ATP G-actin of rabbit skeletal muscle) (rabbit, UniProt P68135 1-377)
Assay: co-sedimentation

B1: N-terminal half of C. elegans RHGF-1 (RHGF-1-N) (domain or fragment)
chain: MRSYEFVTNTPLKLDRHKVYLVDDVAVTRTVPLSQPLSPSTASSSYNMIERCVVVQRQPDGFGLTVNSEFPVYVHTLKQDGAAYCAGVRQGDRIVKVNGMSVSPNNHKEVLQMISNGHNVALTLLGKPPDPISNISFPNQQVEQKIHIADPVLIEASSKSWRQRRNELLGQMVAEERRNVEGLRESSQNGEKIDRALKRIVSLQSQLKQLKPESIISDSQKSLTNLNMDIDSDEEENDVVYLPESQGGPFSNLAELKTHPAHLAVFINYLLLHGNPSSLFFYLITDAYQSAYGTAKEFRRWAFEIFSTFIIPNSPMCIPNSNQSVIQPIDKIMCMTAEHIGDSDTDTLKRIFVPGRQRAVTDINMYLNDFRQKKQLGGQVSESTNQLTHMVRGDMTMEHRVGEQMLFRCLEQCSNSTDFDSCEIRTQSIISSLATVIKIVLGKTSSSSNEKMLDKFPQFMARDKPPGKSRKLPANIKNRIQVKGHSFSINSVNTVHYCYQCRDAIWGMQPWIYFCSNCDVKVHPHCTSALTDACYPVTQSKQKSKSRLSGLIGRSDANDDEDSGSNARHEQPNVKSTSSDSGIGGEHNMDRGLVSRSHSMRYRVATLPQSLSEDKVSIPSSKRDRSVTPSWQRST
B1 gave a Kd of 5.25 µM.

Reference: PMC9798103 (The Journal of Cell Biology, 2022)
